Results from IntAct's records for PubMed 17451412.

Experiments:
wasl_rat Wasl = wasl_rat Wasl (UniProt O08816)
tir_eco57 tir = tir_eco57 tir (UniProt Q7DB77)
Sequence of tir_eco57 tir (Q7DB77 whole entry): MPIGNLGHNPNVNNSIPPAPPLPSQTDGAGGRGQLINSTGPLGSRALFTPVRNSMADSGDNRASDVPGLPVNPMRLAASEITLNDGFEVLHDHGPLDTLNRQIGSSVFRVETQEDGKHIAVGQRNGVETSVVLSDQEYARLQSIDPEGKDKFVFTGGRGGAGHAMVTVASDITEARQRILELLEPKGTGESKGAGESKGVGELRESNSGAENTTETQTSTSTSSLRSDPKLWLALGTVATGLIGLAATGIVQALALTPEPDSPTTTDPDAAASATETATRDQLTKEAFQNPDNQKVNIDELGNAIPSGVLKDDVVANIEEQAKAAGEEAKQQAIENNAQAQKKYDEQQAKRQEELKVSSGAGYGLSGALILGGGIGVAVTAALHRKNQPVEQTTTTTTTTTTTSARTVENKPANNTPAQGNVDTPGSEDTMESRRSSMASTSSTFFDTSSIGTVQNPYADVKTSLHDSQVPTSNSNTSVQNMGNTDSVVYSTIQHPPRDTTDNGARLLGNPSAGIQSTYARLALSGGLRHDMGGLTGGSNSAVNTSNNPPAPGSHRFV

Sequence of wasl_rat Wasl (O08816 whole entry): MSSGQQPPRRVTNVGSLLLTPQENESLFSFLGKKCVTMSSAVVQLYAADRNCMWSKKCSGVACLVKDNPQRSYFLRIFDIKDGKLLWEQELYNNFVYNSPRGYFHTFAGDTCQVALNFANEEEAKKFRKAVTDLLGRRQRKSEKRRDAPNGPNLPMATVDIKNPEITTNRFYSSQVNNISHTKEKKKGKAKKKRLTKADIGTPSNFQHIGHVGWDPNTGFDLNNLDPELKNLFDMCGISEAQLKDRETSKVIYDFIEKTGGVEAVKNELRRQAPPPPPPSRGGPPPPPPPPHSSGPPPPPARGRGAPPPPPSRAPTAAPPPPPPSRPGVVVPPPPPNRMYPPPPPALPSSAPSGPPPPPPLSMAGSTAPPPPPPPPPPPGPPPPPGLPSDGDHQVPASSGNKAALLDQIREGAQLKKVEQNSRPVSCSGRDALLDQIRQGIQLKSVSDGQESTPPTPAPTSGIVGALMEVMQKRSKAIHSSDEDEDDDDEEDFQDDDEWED
Sequence of Src substrate cortactin (Mus musculus), Q60598 S405D;S418D (Q60598 whole entry S405D/S418D): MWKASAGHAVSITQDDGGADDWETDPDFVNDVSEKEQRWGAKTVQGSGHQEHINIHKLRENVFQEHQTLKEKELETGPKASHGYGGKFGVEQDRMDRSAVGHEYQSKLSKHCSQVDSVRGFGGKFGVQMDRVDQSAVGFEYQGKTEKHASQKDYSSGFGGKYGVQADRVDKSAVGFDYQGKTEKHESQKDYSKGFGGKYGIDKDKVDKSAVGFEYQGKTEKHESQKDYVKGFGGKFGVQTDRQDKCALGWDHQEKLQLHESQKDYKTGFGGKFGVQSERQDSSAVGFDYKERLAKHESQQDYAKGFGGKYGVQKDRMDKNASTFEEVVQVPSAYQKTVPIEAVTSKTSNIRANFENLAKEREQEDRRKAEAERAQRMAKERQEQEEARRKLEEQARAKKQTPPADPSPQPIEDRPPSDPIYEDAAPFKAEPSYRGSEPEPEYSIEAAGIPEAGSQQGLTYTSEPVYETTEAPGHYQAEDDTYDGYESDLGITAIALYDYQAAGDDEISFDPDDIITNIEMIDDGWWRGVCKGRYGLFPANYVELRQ
Sequence of Src substrate cortactin (Mus musculus), Q60598 Y421D;Y466D (Q60598 whole entry Y421D/Y466D): as the sequence (Q60598 whole entry S405D/S418D) above, with D405S, D418S, Y421D, Y466D counted along it
Sequence of Src substrate cortactin (Mus musculus), Q60598 W525K (Q60598 whole entry W525K): as the sequence (Q60598 whole entry S405D/S418D) above, with D405S, D418S, W525K counted along it

Substance: Src substrate cortactin (Mus musculus), Q60598 S405D;S418D
- effect of a mutation on the interaction (wasl_rat Wasl): disrupting interaction
- effect of a mutation on the interaction (tir_eco57 tir): with no effect

Substance: Src substrate cortactin (Mus musculus), Q60598 Y421D;Y466D
- effect of a mutation on the interaction (wasl_rat Wasl): increasing interaction
- effect of a mutation on the interaction (tir_eco57 tir): increasing interaction

Substance: Src substrate cortactin (Mus musculus), Q60598 W525K
- effect of a mutation on the interaction (wasl_rat Wasl): with no effect
